Source: IntAct's records for PubMed 31515488

B1: Fibronectin type III and SPRY domain-containing protein 2 (Homo sapiens), A1L4K1 (parent)
chain: MEEESGEELGLDRSTPKDFHFYHMDLYDSEDRLHLFPEENTRMRKVVQAEMANESRGAGDGKAQRDLQEEVDELVHLYGLEDDHELGDEFVDENIPRTGVSEYPPYMMKRRDPAREQRDWRLSGEAAEAEDLGFGGWGSAGQCQDLREAYRYTHGRASEEYECYVIPEEEDEEEAADVFCVTCKTPIRAFQKVFDEHKEHEVIPLNEALESAKDEIHKNMYKLEKQIIEMENFANHLEEVFITVEENFGKQEQNFESHYNEILETLAQKYEEKIQALGEKKKEKLEALYGQLVSCGENLDTCKELMETIEEMCHEEKVDFIKDAVAMADRLGKFLKTKTDVEISAQPEFEDQTLDFSDVEQLMGSINTIPAPSAPVINPQVPNSATGSSVRVCWSLYSDDTVESYQLSYRPVQDSSPGTDQAEFTVTVKETYCSVTNLVPNTQYEFWVTAHNRAGPSPSSERAVYMTAPSPPIIKTKEIRSCEEAVLICWESGNLNPVDSYTVELTQAESPEASGVTESVVGIPTCESVVQLQPGRSYIIYVRALNMGGPSVRSEPATVHTIGSYFRLNKDTCHPWLTISEDGLTAVRSERRTPARELSPSDTHFTRCVAVMGNLIPVRGHHYWEVEVDEHLDYRVGVAFADVRKQEDLGANCLSWCMRHTFASSRHKYEFLHNRTTPDIRITVPPKKIGILLDYEHSKLSFFNVDLSQHLYTFSCQLHEFVHPCFSLEKPGCLKVHNGISMPKHVTFY
partner: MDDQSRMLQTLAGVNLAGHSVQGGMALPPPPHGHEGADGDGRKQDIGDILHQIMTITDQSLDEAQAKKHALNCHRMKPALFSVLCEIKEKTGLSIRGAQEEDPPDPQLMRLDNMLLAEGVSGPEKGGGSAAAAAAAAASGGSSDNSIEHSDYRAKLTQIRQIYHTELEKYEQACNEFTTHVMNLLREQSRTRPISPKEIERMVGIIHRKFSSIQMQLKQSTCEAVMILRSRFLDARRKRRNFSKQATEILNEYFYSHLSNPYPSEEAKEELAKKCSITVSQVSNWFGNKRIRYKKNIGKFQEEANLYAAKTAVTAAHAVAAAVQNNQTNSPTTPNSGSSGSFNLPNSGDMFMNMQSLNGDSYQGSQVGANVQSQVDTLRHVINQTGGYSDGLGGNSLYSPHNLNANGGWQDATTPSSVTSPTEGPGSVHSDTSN
B2: Plasma alpha-L-fucosidase (Homo sapiens), Q9BTY2 (parent)
chain: MRPQELPRLAFPLLLLLLLLLPPPPCPAHSATRFDPTWESLDARQLPAWFDQAKFGIFIHWGVFSVPSFGSEWFWWYWQKEKIPKYVEFMKDNYPPSFKYEDFGPLFTAKFFNANQWADIFQASGAKYIVLTSKHHEGFTLWGSEYSWNWNAIDEGPKRDIVKELEVAIRNRTDLRFGLYYSLFEWFHPLFLEDESSSFHKRQFPVSKTLPELYELVNNYQPEVLWSDGDGGAPDQYWNSTGFLAWLYNESPVRGTVVTNDRWGAGSICKHGGFYTCSDRYNPGHLLPHKWENCMTIDKLSWGYRREAGISDYLTIEELVKQLVETVSCGGNLLMNIGPTLDGTISVVFEERLRQMGSWLKVNGEAIYETHTWRSQNDTVTPDVWYTSKPKEKLVYAIFLKWPTSGQLFLGHPKAILGATEVKLLGHGQPLNWISLEQNGIMVELPQLTIHQMPCKWGWALALTNVI
B3: RING finger protein 11 (Homo sapiens), Q9Y3C5 (parent)
chain: MGNCLKSPTSDDISLLHESQSDRASFGEGTEPDQEPPPPYQEQVPVPVYHPTPSQTRLATQLTEEEQIRIAQRIGLIQHLPKGVYDPGRDGSEKKIRECVICMMDFVYGDPIRFLPCMHIYHLDCIDDWLMRSFTCPSCMEPVDAALLSSYETN
B4: Keratin, type II cytoskeletal 6A (Homo sapiens), P02538 (parent)
chain: MASTSTTIRSHSSSRRGFSANSARLPGVSRSGFSSVSVSRSRGSGGLGGACGGAGFGSRSLYGLGGSKRISIGGGSCAISGGYGSRAGGSYGFGGAGSGFGFGGGAGIGFGLGGGAGLAGGFGGPGFPVCPPGGIQEVTVNQSLLTPLNLQIDPTIQRVRAEEREQIKTLNNKFASFIDKVRFLEQQNKVLETKWTLLQEQGTKTVRQNLEPLFEQYINNLRRQLDSIVGERGRLDSELRGMQDLVEDFKNKYEDEINKRTAAENEFVTLKKDVDAAYMNKVELQAKADTLTDEINFLRALYDAELSQMQTHISDTSVVLSMDNNRNLDLDSIIAEVKAQYEEIAQRSRAEAESWYQTKYEELQVTAGRHGDDLRNTKQEIAEINRMIQRLRSEIDHVKKQCANLQAAIADAEQRGEMALKDAKNKLEGLEDALQKAKQDLARLLKEYQELMNVKLALDVEIATYRKLLEGEECRLNGEGVGQVNISVVQSTVSSGYGGASGVGSGLGLGGGSSYSYGSGLGVGGGFSSSSGRAIGGGLSSVGGGSSTIKYTTTSSSSRKSYKH

Variants of: B1
Conditions: with pbx3_human PBX3, P40426

effect of a mutation on the interaction	Variant
with no effect	E720K

Variants of: B2
Conditions: with meox2_human MEOX2, P50222
meox2_human MEOX2, P50222, sequence (P50222 whole entry): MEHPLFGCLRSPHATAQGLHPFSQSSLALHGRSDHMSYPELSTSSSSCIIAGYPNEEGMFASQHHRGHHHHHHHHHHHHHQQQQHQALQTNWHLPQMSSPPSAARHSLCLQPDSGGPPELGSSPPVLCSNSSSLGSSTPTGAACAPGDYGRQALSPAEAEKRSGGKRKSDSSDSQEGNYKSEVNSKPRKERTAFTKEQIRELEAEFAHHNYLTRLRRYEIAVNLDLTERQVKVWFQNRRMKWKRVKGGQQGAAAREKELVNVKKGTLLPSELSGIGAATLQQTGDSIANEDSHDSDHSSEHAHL

effect of a mutation on the interaction	Variant
with no effect	A233E

Variants of: B3
Conditions: with ub2d4_human UBE2D4, Q9Y2X8
ub2d4_human UBE2D4, Q9Y2X8, sequence (Q9Y2X8 whole entry): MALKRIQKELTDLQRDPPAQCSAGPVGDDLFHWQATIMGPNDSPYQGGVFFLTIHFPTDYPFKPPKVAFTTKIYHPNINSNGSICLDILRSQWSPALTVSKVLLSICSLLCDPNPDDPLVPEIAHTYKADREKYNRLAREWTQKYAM

effect of a mutation on the interaction	Variant
with no effect	R97W

Variants of: B4
Conditions: with KRT17, Q04695
KRT17, Q04695, sequence (Q04695 whole entry): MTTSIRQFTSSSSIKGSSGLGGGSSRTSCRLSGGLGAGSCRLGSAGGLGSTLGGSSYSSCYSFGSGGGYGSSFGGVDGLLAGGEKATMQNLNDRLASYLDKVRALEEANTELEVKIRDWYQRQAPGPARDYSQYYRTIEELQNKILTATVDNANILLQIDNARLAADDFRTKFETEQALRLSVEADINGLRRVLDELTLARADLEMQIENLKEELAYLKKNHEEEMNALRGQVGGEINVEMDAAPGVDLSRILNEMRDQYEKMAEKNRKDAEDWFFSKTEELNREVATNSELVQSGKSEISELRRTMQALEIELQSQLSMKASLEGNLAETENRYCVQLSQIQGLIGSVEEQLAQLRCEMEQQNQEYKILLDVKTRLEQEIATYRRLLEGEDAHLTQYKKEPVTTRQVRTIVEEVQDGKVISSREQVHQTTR

effect of a mutation on the interaction	Variant
with no effect	V523F
with no effect	R415H
with no effect	T552S

Variants of: B4
Conditions: with tfp11_human TFIP11, Q9UBB9
tfp11_human TFIP11, Q9UBB9, sequence (Q9UBB9 whole entry): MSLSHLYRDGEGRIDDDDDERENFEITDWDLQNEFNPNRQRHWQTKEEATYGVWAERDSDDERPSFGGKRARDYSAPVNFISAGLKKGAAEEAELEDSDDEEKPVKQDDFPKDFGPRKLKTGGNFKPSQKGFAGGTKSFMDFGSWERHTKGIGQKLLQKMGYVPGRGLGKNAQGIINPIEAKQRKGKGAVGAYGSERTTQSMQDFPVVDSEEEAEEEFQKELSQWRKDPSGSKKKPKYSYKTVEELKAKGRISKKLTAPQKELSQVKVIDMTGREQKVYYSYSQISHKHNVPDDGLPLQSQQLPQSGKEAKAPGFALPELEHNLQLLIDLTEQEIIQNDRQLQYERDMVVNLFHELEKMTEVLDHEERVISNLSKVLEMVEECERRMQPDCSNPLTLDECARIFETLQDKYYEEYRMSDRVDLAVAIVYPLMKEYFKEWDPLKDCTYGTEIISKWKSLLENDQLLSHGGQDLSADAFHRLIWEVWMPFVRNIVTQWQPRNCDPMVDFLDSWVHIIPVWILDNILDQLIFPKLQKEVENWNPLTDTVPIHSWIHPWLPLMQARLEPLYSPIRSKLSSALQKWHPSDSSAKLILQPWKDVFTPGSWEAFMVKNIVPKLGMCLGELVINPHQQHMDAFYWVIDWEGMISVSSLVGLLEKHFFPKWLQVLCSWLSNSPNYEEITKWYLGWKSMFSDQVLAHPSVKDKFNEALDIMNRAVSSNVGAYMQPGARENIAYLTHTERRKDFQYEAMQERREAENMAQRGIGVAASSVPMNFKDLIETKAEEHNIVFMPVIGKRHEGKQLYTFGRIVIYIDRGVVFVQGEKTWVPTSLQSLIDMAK

effect of a mutation on the interaction	Variant
with no effect	V523F
with no effect	R415H
with no effect	T552S

Variants of: B4
Conditions: with KRT15, P19012
KRT15, P19012, sequence (P19012 whole entry): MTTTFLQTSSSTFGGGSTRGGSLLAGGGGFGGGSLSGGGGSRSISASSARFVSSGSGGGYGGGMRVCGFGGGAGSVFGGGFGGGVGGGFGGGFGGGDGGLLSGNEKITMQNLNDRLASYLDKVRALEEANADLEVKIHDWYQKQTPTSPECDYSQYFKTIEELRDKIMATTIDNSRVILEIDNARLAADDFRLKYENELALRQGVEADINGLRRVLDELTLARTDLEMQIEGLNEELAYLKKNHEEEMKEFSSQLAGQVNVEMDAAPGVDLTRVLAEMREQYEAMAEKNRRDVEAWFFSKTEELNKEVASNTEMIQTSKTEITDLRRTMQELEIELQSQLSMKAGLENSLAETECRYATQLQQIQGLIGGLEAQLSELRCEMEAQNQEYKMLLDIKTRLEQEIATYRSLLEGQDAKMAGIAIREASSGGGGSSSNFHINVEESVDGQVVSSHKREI

effect of a mutation on the interaction	Variant
with no effect	V523F
with no effect	R415H
with no effect	T552S
